Patent publication US12723279B2, “Long stokes shift chromenoquinoline dyes and uses in sequencing applications” (priority 2020, dated 2026)

What was measured:
Format in all cases: physicochemical
[1] = Fluorescence emission of chromenoquinoline dye labeled ffA nucleotides
Experimental: (§1) The chromenoquinoline dye of Formula (I) (0.020 mmol) was coevaporated with 2×2 mL of anhydrous N,N′-dimethylformamide (DMF), then dissolved in 2 mL of anhydrous N,N′-dimethylacetamide (DMA). N,N-diisopropylethylamine (28.4 μL, 0.163 mmol) was added, followed by N,N,N′,N′-tetramethyl-O—(N-succinimidyl)uronium tetrafluoroborate as 0.1 M solution in anhydrous DMA (TSTU, 232 μL, 0.023 mmol). The reaction was stirred under nitrogen at RT for 30 minutes. In the meantime, an aqueous solution of the 2′-deoxyadenosine triphosphates-linker (0.01 mmol) was evaporated to dryness under reduced pressure and resuspended in 200 μL, of 0.1 M triethylammonium bicarbonate (TEAB) solution in water. The activated chromenoquinoline dye solution was added to the triphosphate and the reaction was stirred at RT for 18 hours. The crude product was purified firstly by ion-exchange chromatography on DEAE-Sephadex A25 (25 g). The fractions containing the triphosphate were pooled and the solvent was evaporated to dryness under reduced pressure. The crude material was further purified by preparative scale RP-HPLC using a YMC-Pack-Pro C18 column. The final compound was characterized by LC-MS, analytical RP-HPLC and UV-Vis spectroscopy.
(§2) In this example, the spectral properties of several fully functionalized A nucleotides (ffAs) conjugated with the chromenoquinoline dyes described herein were characterized. FIG. 1 illustrates the […] of ffA nucleotides conjugated with chromenoquinoline dyes I-1 through I-6 and I-8 as a 2 μM solution in Universal Scan Mix (USM, 1 M Tris pH 7.5, 0.05% TWEEN, 20 mM sodium ascorbate, 10 mM ethyl gallate). FIGS. 2A-2D show the fluorescence emission spectra of ffA nucleotide conjugated with chromenoquinoline dyes I-1 through I-6 and I-8 acquired using either 450 nm or 520 nm as excitation wavelengths in USM. The spectra were acquired on an Agilent Cary 100 UV-Vis Spectrophotometer and on a Cary Eclipse Fluorescence Spectrophotometer, using quartz or plastic cuvettes. It was observed that the chromenoquinoline dyes described herein can be excited under both blue and green light sources and also have strong fluorescent emission.

[2] = UV-Vis absorption of chromenoquinoline dye labeled ffA nucleotides
Experimental: as §1, §2

[3] = Stability of dye labeled ffAs in aqueous solution at high pH (ethanolamine and glycine buffers, 45° C.); settings: 10 μM, dark, vs ffC labeled with coumarin reference dye A
Experimental: The stability of the compounds ffA-sPA-I-3 and ffA-sPA-I-4 in an aqueous solution at high pH was assessed by incubating a 10 μM solution of the given compound in two buffers: 1) 50 mM ethanolamine buffer, pH 9.6, 50 mM NaCl, 1 mM EDTA, 0.02% CHAPS, 4 mM MgSO4; 2) 50 mM glycine buffer, pH 9.8, 50 mM NaCl, 1 mM EDTA, 0.2% CHAPS, 4 mM MgSO4 at 45° C. in the dark for 6 days. At set time points, the UV-VIS absorption and fluorescence emission of the solutions were measured on an Agilent Cary 100 UV-Vis Spectrophotometer and on a Cary Eclipse Fluorescence Spectrophotometer, using quartz cuvettes. In addition, aliquots of the solutions were taken and analyzed by analytical HPLC. […] The coumarin reference dye A is disclosed in U.S. Publication No. 2018/0094140, having the structure moiety

[4] = 50 mM ethanolamine buffer pH 9.6, 45° C., 6 days (FIG. 3A)
[5] = 50 mM glycine buffer pH 9.8, 45° C., 6 days (FIG. 3B)

SMILES	Fluorescence em. λmax [1]	UV-VIS λmax [2]	fluorescence emission over time [3, 4]	fluorescence emission over time [3, 5]
Cc1ccc2c(c1)cc1c([n+]2C)-c2cc3c(cc2OC1)N(CCCC(=O)NCCNC(=O)c1cccc(OCC(N=[N+]=[N-])OCCOCC(=O)NCC#Cc2cn([C@H]4CC(OCN=[N+]=[N-])[C@@H](COP(=O)(O)OP(=O)(O)OP(=O)(O)O)O4)c4ncnc(N)c24)c1)CCC3 (stereo partly shown) [ffA-LN3-I-2]	582 nm	500 nm		
Cc1cc2cc3c([n+](C)c2cc1C)-c1cc2c(cc1OC3)N(CCCC(=O)NCCCCCNC(=O)c1cccc(OCC(N=[N+]=[N-])OCC(=O)NCC#Cc3cn([C@H]4CC(OCN=[N+]=[N-])[C@@H](COP(=O)(O)OP(=O)(O)OP(=O)(O)O)O4)c4ncnc(N)c34)c1)CCC2 (stereo partly shown) [ffA-sPA-LN3-I-3]	578 nm	500 nm	decreased very slowly over time	decreased very slowly over time
CCN(CC)c1ccc2c(c1)OCc1cc3cc(CC(=O)NCCNC(=O)c4cccc(OCC(N=[N+]=[N-])OCCOCC(=O)NCC#Cc5cn([C@H]6CC(OCN=[N+]=[N-])[C@@H](COP(=O)(O)OP(=O)(O)OP(=O)(O)O)O6)c6ncnc(N)c56)c4)ccc3[n+](C)c1-2 (stereo partly shown) [ffA-LN3-I-6]	574 nm	495 nm		
COc1cc2c(cc3c([n+]2C)-c2cc4c(cc2OC3)N(CCCC(=O)NCCCCCNC(=O)c2cccc(OCC(N=[N+]=[N-])OCC(=O)NCC#Cc3cn([C@H]5CC(OCN=[N+]=[N-])[C@@H](COP(=O)(O)OP(=O)(O)OP(=O)(O)O)O5)c5ncnc(N)c35)c2)CCC4)c(OC)c1OC (stereo partly shown) [ffA-sPA-LN3-I-8]	583 nm	500 nm		
COc1ccc2c(c1)cc1c([n+]2C)-c2cc3c(cc2OC1)N(CCCC(=O)NCCNC(=O)c1cccc(OCC(N=[N+]=[N-])OCCOCC(=O)NCC#Cc2cn([C@H]4CC(OCN=[N+]=[N-])[C@@H](COP(=O)(O)OP(=O)(O)OP(=O)(O)O)O4)c4ncnc(N)c24)c1)C(C)(C)CC3C (stereo partly shown) [ffA-LN3-I-5]	585 nm	501 nm		
C=CCOCOC1C[C@H](n2cc(C#CCNC(=O)COC(COc3cccc(C(=O)NCCCCCNC(=O)CCCN4CCCc5cc6c(cc54)OCc4cc5cc(OC)c(OC)cc5[n+](C)c4-6)c3)OCC=C)c3c(N)ncnc32)O[C@@H]1COP(=O)(O)OP(=O)(O)OP(=O)(O)O (stereo partly shown) [ffA-AOM-AOL-I-4]	578 nm	500 nm		
C=CCOCOC1C[C@H](n2cc(/C=C/CNC(=O)COC(COc3cccc(C(=O)NCCCCCNC(=O)CCCN4CCCc5cc6c(cc54)OCc4cc5cc(OC)c(OC)cc5[n+](C)c4-6)c3)OCC=C)c3c(N)ncnc32)O[C@@H]1COP(=O)(O)OP(=O)(O)OP(=O)(O)O (stereo partly shown) [ffA-(DB)-AOM-AOL-I-4]	578 nm	500 nm		
COc1ccc2c(c1)cc1c([n+]2C)-c2cc3c(cc2OC1)N(CCCC(=O)NCCNC(=O)c1cccc(OCC(N=[N+]=[N-])OCCOCC(=O)NCC#Cc2cn([C@H]4CC(OCN=[N+]=[N-])[C@@H](COP(=O)(O)OP(=O)(O)OP(=O)(O)O)O4)c4ncnc(N)c24)c1)CCC3 (stereo partly shown) [ffA-LN3-I-1]	590 nm	503 nm		
COc1cc2cc3c([n+](C)c2cc1OC)-c1cc2c(cc1OC3)N(CCCC(=O)NCCCCCNC(=O)c1cccc(OCC(N=[N+]=[N-])OCC(=O)NCC#Cc3cn([C@H]4CC(OCN=[N+]=[N-])[C@@H](COP(=O)(O)OP(=O)(O)OP(=O)(O)O)O4)c4ncnc(N)c34)c1)CCC2 (stereo partly shown) [ffA-sPA-LN3-I-4]	578 nm	500 nm	decreased very slowly over time	decreased very slowly over time
